Reference: EP4279506A1 (Persongen Biotherapeutics (Suzhou) Co., Ltd., dated 2023)

T1: murine 2Ig-B7-H3 (m2IgB7H3) expressed on Raji cells (mouse, UniProt Q8VE98 29-316)
T1 construct: whole, on cells; also called m2IgB7H3-Raji; mB7-H3-Raji
T1 sequence (looked up): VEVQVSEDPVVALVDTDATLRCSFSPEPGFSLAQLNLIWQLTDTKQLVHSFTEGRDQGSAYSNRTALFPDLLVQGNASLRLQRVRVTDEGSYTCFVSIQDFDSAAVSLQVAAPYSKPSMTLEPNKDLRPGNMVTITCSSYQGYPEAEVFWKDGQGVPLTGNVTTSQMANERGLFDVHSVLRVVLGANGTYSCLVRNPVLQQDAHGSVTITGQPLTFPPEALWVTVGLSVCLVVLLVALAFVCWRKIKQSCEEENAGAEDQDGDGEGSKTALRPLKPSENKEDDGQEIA

T2: human 4Ig-B7-H3 (h4IgB7H3) expressed on Raji cells (human, UniProt Q5ZPR3 29-534)
T2 construct: whole, on cells; also called h4IgB7H3-Raji
T2 sequence (looked up): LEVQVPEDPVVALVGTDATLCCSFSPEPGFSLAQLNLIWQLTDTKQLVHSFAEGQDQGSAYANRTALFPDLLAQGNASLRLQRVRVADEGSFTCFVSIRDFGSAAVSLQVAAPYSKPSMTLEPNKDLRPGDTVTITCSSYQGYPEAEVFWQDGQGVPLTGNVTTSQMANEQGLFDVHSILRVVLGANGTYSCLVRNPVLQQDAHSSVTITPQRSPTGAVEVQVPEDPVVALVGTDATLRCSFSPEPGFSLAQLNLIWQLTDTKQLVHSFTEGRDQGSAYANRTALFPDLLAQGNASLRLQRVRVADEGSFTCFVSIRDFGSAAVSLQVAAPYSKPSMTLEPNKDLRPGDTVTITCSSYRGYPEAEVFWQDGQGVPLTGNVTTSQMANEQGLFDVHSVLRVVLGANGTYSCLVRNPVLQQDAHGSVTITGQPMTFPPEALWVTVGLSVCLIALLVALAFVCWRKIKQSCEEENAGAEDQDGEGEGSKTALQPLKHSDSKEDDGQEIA


Assays:
[1] = target: T1, murine 2Ig-B7-H3 (m2IgB7H3) expressed …; assay: flow cytometry on m2IgB7H3-Raji cells
[2] = target: T2, human 4Ig-B7-H3 (h4IgB7H3) expressed on …; assay: flow cytometry on h4IgB7H3-Raji cells
[3] = target: B7-H3-His recombinant protein (UniProt Q5ZPR3); assay: SPR; B7-H3-His on CM5 chip, antibody as mobile phase

binding result [1] | binding result [2] | Kd [3] [nM] | koff [3] [s⁻¹] | kon [3] [M⁻¹ s⁻¹] | Binder
binds | binds | 114 | 0.00282 | 24800 | humanized B7-H3 antibody T1H1-T1L1 (αhB7-H3 antibody) (antibody, V domains shown, They were subcloned into the pcDNA3.1-IgG1Fc (heavy) and pcDNA3.1-IgKc (light) expression vectors; The antibody was detected with anti-human IgG; also called αhB7-H3 Ab; B7-H3 T1H1-T1L1) VH: EVQLVESGGGLIQPGGSLRLSCAASGFTFSTYVMSWVRQAPGKGLEWVSSILSGGTSFYADNVKGRFTISRDNSKNTLYLQMNSLRAEDTAVYYCARRYGHDHYYAMDYWGQGTLVTVSS VL: EIVLTQSPATLSLSPGERATLSCAASSSVSSSYLHWYQQKPGLAPRLLIYSTSNLASGIPDRFSGSGSGTDFTLTISRLEPEDFAVYYCQQYHRSPWTFGGGTKVEIK
 |  | 72.8 | 0.00289 | 39700 | humanized B7-H3 antibody T2H1-T2L1 (βhB7-H3 antibody) (antibody, V domains shown) VH: EVQLVESGGGVVRPGGSLRLSCAASGFTFSTYVMSWVRQAPGKGLEWVSSILSGGTSFYADNVKGRFTISRDNAKNSLYLQMNSLRAEDTALYHCARRYGHDHYYAMDYWGQGTTVTVSS VL: DIQMTQSPSTLSASVGDRVTITCAASSSVSSSYLHWYQQKPGKAPKLLIYSTSNLASGVPSRFSGSGSGTEFTLTISSLQPDDFATYYCQQYHRSPWTFGQGTKLEIK
 |  | 70.8 | 0.00258 | 36400 | mouse anti-human mB7-H3 antibody (antibody, V domains shown) VH: EVTLVESGGGLVKPGGSLKLSCAASGFTFSTYVMSWVRQTPEKRLEWVASILSGGTSFYADNVKGRFTISRENARNILYLQMSSLKSEDTAMYYCVRRYGHDHYYAMDYWGQGTSVTVSS VL: QIVLTQSPANMSASLGERVTMTCAASSSVSSSYLHWYQQKPGSSPKLWIYSTSNLASGVPGRFNGSGSGTSYSLTISSMEAEDAATYYCHQYHRSPWTFGGGTKLEIK
